Results taken from PMC10904854, “A druggable conformational switch in the c-MYC transactivation domain” (Nature Communications, 2024).

What was measured:
[1] = biological target: T1, TRRAP_(2038-2087) synthetic peptide (N-terminal acetyl (Ac-), C-terminal amide (-NH2)); test: native MS; equimolar mixture, 15.5 uM coreMYC and 15 uM TRRAP_(2038-2087) peptide in 100 mM ammonium acetate, no EGCG, sample cone 10 V; conditions: both partners purified
T1 construct: transformation/transcription domain-associated protein (TRRAP), residues 2038-2087; also called TRRAP peptide; source: synthetic peptide (GenScript)
T1 peptide: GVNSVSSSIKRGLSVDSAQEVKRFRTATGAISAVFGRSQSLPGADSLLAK

[2] = biological target: T2, Recombinant human TATA binding protein (ab81897, Abcam) (human); test: native MS; mixture of coreMYC (6) and full-length TBP (10; concentrations printed as mM), ammonium acetate (TBP exchanged into 1 M), no EGCG, sample cone 50 V; conditions: both partners purified
T2 construct: also called TBP; full-length, human TBP; source: bought: Abcam (ab81897)
T2 chain: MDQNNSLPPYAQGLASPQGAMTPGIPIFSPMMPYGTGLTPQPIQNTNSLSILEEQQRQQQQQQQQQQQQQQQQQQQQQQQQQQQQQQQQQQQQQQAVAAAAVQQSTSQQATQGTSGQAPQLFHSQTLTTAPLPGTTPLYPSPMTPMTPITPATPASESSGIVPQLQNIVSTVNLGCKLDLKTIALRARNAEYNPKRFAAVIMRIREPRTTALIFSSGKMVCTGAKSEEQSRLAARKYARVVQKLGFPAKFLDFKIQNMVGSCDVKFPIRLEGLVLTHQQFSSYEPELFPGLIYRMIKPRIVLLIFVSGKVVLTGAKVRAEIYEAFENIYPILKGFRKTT

- stoichiometry N [1]: 1
- stoichiometry N [2]: 1
B1: MGHis6-coreMYC (c-MYC residues 101-150) (peptide)
chain: MVTELLGGDMVNQSFICDPDDETFIKNIIIQDCMWSGFSAAAKLVSEKLA
notes: c-MYC, residues 101-150 (coreMYC); Cloned into pET-26b(+); also called MYC_(101-150); COnformational REgulator of c-MYC; source: E. coli BL21 (DE3), purified in-house (solubilised from the pellet in urea, His SpinTrap column); not shown: MGHis6, N-terminal, kept
